From patent US20130209454A1

How the values were obtained:
Assay in all cases: cell-based or functional assay
[1] = biological target: HIV-1 Env of strain BJOX025000.01.1 (HIV-1)
[2] = biological target: HIV-1 Env of strain Ce703010054_2A2 (HIV-1)
[3] = biological target: Env of HIV-1 strain 9004SS_A3_4 (HIV-1)
[4] = biological target: Env of HIV-1 strain 3365.v2.c2 (HIV-1)
[5] = biological target: Env of HIV-1 strain BJOX010000.06.2 (HIV-1)
[6] = biological target: Env of HIV-1 strain Q461.e2 (HIV-1)
[7] = biological target: HIV-1 Env of strain 231966.c02 (HIV-1)
[8] = biological target: Env of HIV-1 strain 3415.v1.c1 (HIV-1)
[9] = biological target: HIV-1 Env of strain ZM249M.PL1 (HIV-1)
[10] = biological target: Env of HIV-1 strain 6535.3 (HIV-1)
[11] = biological target: HIV-1 Env of strain ZM233M.PB6 (HIV-1)
[12] = biological target: HIV-1 Env of strain T257-31 (HIV-1)
[13] = biological target: HIV-1 Env of strain CNE5 (HIV-1)
[14] = biological target: HIV-1 Env of strain 7030102001E5(Rev) (HIV-1)
[15] = biological target: Env of HIV-1 strain WITO4160.33 (HIV-1)
[16] = biological target: HIV-1 Env of strain HIV-0013095-2.11 (HIV-1)
[17] = biological target: HIV-1 Env of strain WITO4160.33 (HIV-1)
[18] = biological target: Env of HIV-1 strain 89-F1_2_25 (HIV-1)
[19] = biological target: Env of HIV-1 strain 928-28 (HIV-1)
[20] = biological target: HIV-1 Env of strain BJOX010000.06.2 (HIV-1)
[21] = biological target: Env of HIV-1 strain CNE53 (HIV-1)
[22] = biological target: Env of HIV-1 strain C1080.c03 (HIV-1)
[23] = biological target: HIV-1 Env of strain R2184.c04 (HIV-1)
[24] = biological target: Env of HIV-1 strain 231965.c01 (HIV-1)
[25] = biological target: Env of HIV-1 strain P1981_C5_3 (HIV-1)
[26] = biological target: Env of HIV-1 strain ZM109F.PB4 (HIV-1)
[27] = biological target: Env of HIV-1 strain 6244_13_B5_4576 (HIV-1)
[28] = biological target: HIV-1 Env of strain CNE30 (HIV-1)
[29] = biological target: HIV-1 Env of strain CAAN5342.A2 (HIV-1)
[30] = biological target: HIV-1 Env of strain X2131_C1_B5 (HIV-1)
[31] = biological target: HIV-1 Env of strain C3347.c11 (HIV-1)
[32] = biological target: Env of HIV-1 strain ZM214M.PL15 (HIV-1)
[33] = biological target: HIV-1 Env of strain 6480.v4.c25 (HIV-1)
[34] = biological target: Env of HIV-1 strain HIV-001428-2.42 (HIV-1)
[35] = biological target: Env of HIV-1 strain AC10.0.29 (HIV-1)
[36] = biological target: HIV-1 Env of strain 1394C9G1(Rev-) (HIV-1)
[37] = biological target: Env of HIV-1 strain T278-50 (HIV-1)
[38] = biological target: HIV-1 Env of strain ZM197M.PB7 (HIV-1)
[39] = biological target: HIV-1 Env of strain 6540.v4.c1 (HIV-1)
[40] = biological target: Env of HIV-1 strain 7030102001E5(Rev-) (HIV-1)
[41] = biological target: HIV-1 Env of strain CNE52 (HIV-1)
[42] = biological target: HIV-1 Env of strain REJO4541.67 (HIV-1)
[43] = biological target: HIV-1 Env of strain Q842.d12 (HIV-1)
[44] = biological target: HIV-1 Env of strain Ce1172_H1 (HIV-1)
[45] = biological target: Env of HIV-1 strain CNE58 (HIV-1)
[46] = biological target: HIV-1 Env of strain Q461.e2 (HIV-1)
[47] = biological target: Env of HIV-1 strain T255-34 (HIV-1)
[48] = biological target: Env of HIV-1 strain T250-4 (HIV-1)
[49] = biological target: Env of HIV-1 strain RHPA4259.7 (HIV-1)
[50] = biological target: HIV-1 Env of strain CAP45.2.00.G3 (HIV-1)
[51] = biological target: Env of HIV-1 strain 6540.v4.c1 (HIV-1)

Chain of NIH45-46 (antibody) (VH): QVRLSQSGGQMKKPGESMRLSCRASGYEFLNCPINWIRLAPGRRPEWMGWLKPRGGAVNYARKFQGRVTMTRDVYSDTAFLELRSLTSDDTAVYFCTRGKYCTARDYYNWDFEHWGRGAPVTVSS
Chain of NIH45-46 (antibody) (V domain): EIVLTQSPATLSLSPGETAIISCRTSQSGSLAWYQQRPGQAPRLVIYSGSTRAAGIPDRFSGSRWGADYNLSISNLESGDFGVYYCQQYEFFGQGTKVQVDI

NIH45-46 (antibody)
IC50, pseudovirus neutralization [1]: 0.18 µg/mL | IC50, pseudovirus neutralization [2]: 0.159 µg/mL | IC80 [3]: 0.65 µg/mL | IC80 [4]: 0.11 µg/mL | IC80 [5]: 6.37 µg/mL | IC80 [6]: 0.291 µg/mL | IC50, pseudovirus neutralization [7]: 1.64 µg/mL | IC80 [8]: 0.086 µg/mL | IC50, pseudovirus neutralization [9]: 0.017 µg/mL | IC80 [10]: 0.54 µg/mL | IC50, pseudovirus neutralization [11]: 2.5 µg/mL | IC50, pseudovirus neutralization [12]: 0.49 µg/mL | IC50, pseudovirus neutralization [13]: 0.09 µg/mL | IC50, pseudovirus neutralization [14]: 0.14 µg/mL | IC80 [15]: 0.26 µg/mL | IC50, pseudovirus neutralization [16]: 0.01 µg/mL | IC50, pseudovirus neutralization [17]: 0.06 µg/mL | IC80 [18]: > 50 µg/mL | IC80 [19]: 0.64 µg/mL | IC50, pseudovirus neutralization [20]: 0.87 µg/mL | IC80 [21]: 0.039 µg/mL | IC80 [22]: 11.6 µg/mL | IC50, pseudovirus neutralization [23]: 0.034 µg/mL | IC80 [24]: 0.126 µg/mL | IC80 [25]: 0.24 µg/mL | IC80 [26]: 0.437 µg/mL | IC80 [27]: 0.26 µg/mL | IC50, pseudovirus neutralization [28]: 0.309 µg/mL | IC50, pseudovirus neutralization [29]: 0.15 µg/mL | IC50, pseudovirus neutralization [30]: 0.23 µg/mL | IC50, pseudovirus neutralization [31]: 0.029 µg/mL | IC80 [32]: 0.59 µg/mL | IC50, pseudovirus neutralization [33]: 0.032 µg/mL | IC80 [34]: 0.01 µg/mL | IC80 [35]: 1.93 µg/mL | IC50, pseudovirus neutralization [36]: 0.09 µg/mL | IC80 [37]: > 50 µg/mL | IC50, pseudovirus neutralization [38]: 0.15 µg/mL | IC50, pseudovirus neutralization [39]: > 50 µg/mL | IC80 [40]: 0.63 µg/mL | IC50, pseudovirus neutralization [41]: 0.03 µg/mL | IC50, pseudovirus neutralization [42]: 0.014 µg/mL | IC50, pseudovirus neutralization [43]: 0.031 µg/mL | IC50, pseudovirus neutralization [44]: > 50 µg/mL | IC80 [45]: 2.08 µg/mL | IC50, pseudovirus neutralization [46]: 0.076 µg/mL | IC80 [47]: 3.44 µg/mL | IC80 [48]: > 50 µg/mL | IC80 [49]: 0.047 µg/mL | IC50, pseudovirus neutralization [50]: > 50 µg/mL | IC80 [51]: > 50 µg/mL
